These results are taken from patent US8415393B2, “Anti-bacterial drug targeting of genome maintenance interfaces” (Wisconsin Alumni Research Foundation, priority 2007, dated 2013).

Where no end group is shown, it is not given here. fluorescein = fluorescein moiety attached to the N-terminus of the peptide (N-terminal fluorescein label)

Experiment in all cases: fluorescence anisotropy equilibrium binding (Kd,app), ExoI variant titrated into fluorescein-labeled peptide
On the technique in general: Fluorescence polarisation rises when a labelled molecule tumbles more slowly, as on binding a larger partner.

One experiment deals with T1, ExoI Asp319Ala variant (Escherichia coli, UniProt P04995 1-475).
T1 construct: also called D319A; Asp319 variant
T1 sequence: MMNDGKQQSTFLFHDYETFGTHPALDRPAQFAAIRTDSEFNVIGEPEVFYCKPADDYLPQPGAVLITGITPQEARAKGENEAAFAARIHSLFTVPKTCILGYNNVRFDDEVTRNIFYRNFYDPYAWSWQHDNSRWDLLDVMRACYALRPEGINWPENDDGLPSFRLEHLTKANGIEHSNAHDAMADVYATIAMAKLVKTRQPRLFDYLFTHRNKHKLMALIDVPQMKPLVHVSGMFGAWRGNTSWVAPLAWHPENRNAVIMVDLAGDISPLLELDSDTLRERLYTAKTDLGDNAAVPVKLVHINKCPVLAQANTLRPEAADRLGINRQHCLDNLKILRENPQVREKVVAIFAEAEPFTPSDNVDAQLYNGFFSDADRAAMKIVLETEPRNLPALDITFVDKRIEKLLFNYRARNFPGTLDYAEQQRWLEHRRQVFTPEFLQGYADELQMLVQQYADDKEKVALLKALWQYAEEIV

The target in another experiment is T2, ExoI Lys227Ala variant (Escherichia coli, UniProt P04995 1-475).
T2 construct: basic ridge residue; also called K227A; Lys227 variant
T2 sequence: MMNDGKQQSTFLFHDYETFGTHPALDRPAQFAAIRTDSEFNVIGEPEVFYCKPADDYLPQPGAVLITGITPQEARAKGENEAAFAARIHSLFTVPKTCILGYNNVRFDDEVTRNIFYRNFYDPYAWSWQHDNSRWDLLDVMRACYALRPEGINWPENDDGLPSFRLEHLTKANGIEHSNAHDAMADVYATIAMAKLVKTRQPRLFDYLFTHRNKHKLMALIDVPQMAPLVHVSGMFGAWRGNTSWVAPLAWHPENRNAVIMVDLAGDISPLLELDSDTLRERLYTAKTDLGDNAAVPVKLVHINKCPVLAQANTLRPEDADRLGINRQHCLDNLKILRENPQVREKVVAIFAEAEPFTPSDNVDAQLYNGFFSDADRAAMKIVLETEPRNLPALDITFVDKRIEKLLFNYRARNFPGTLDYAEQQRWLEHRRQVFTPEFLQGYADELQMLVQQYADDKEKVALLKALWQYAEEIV

A further experiment deals with T3, ExoI Leu331Ala variant (Escherichia coli, UniProt P04995 1-475).
T3 construct: also called L331A
T3 sequence: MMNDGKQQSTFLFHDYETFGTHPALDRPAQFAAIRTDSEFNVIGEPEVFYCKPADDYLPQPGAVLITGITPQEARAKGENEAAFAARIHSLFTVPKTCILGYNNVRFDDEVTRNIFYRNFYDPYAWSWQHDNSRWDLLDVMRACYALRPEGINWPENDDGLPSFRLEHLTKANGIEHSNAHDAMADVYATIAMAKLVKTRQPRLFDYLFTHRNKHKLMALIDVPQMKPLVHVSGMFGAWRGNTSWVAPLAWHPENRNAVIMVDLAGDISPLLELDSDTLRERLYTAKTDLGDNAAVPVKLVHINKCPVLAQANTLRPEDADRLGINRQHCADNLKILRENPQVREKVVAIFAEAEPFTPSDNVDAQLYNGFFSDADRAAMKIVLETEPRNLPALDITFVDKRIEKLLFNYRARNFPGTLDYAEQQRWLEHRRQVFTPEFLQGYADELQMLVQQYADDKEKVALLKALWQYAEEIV

The target of a further experiment is T4, ExoI Arg327Ala variant (Escherichia coli, UniProt P04995 1-475).
T4 construct: also called R327A
T4 sequence: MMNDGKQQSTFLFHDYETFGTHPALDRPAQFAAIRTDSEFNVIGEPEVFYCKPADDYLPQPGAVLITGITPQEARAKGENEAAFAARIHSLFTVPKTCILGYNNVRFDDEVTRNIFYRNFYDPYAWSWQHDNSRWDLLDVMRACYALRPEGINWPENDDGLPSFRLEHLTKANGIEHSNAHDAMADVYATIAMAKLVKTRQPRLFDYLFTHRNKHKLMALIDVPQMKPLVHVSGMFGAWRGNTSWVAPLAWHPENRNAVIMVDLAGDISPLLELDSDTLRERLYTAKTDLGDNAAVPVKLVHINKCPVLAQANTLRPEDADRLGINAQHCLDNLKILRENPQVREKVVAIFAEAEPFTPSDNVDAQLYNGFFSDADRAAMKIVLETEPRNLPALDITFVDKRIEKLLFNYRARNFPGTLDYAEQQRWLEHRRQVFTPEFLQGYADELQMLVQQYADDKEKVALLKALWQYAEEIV

For the molecule fluorescein-WMDFDDDIPF (also called F-SSB-Ct; F-WT) [fluorescein-labeled SSB C-terminal peptide (fluorescein-WMDFDDDIPF)], the Kd in the experiment with ExoI Asp319Ala variant was 299 nM; with ExoI Lys227Ala variant, around 1000 nM; in the experiment with ExoI Leu331Ala variant, 193 nM; with ExoI Arg327Ala variant it was 270 nM.
